The results in this text go back to paper PMC12313933 (Nature Communications, 2025).

Data set [1] deals with the molecule itself. Nature of the data set: dynamic light scattering.
Data set [2] concerns the molecule itself. Nature of the data set: crystal structure.

B1: MIF(Y100H) variant (enzyme, human)
chain: MPMFIVNTNVPRASVPDGFLSELTQQLAQATGKPPQYIAVHVVPDQLMAFGGSSEPCALCSLHSIGKIGGAQNRSYSKLLCGLLAERLRISPDRVYINYHDMNAANVGWNNSTFA
A word on the stoichiometry N: it is the number of molecules, sites or subunits per partner or assembly. Regarding B1, in data set [1], the “stoichiometry N” value was 3.

B2: MIF(S61H/Y100H) variant (enzyme, human)
chain: MPMFIVNTNVPRASVPDGFLSELTQQLAQATGKPPQYIAVHVVPDQLMAFGGSSEPCALCHLHSIGKIGGAQNRSYSKLLCGLLAERLRISPDRVYINYHDMNAANVGWNNSTFA
As to B2, the binding result in data set [2] is listed as “binds”.
